Source: the supplement of paper PMC7125110
± gives the standard error. For part of these data: Variants at the floor of the assay were thinned out.

B1: glmS ribozyme (parent)
chain: AUAAAAGCGCCAGAACUACAGAAAUGUAGUUGACGAGGAGGAGGUUUAUCGAAUUUUCGGCGGAUGCCUCCAAA

Assays:
Details in all cases: with glucosamine-6-phosphate
glucosamine-6-phosphate [1] = variants of: B1; test: kcat; higher = faster cleavage; RNA array
How it was run: (§1)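 Sequenced MiSeq chips were the platform: E. coli RNA polymerase transcribed barcoded ribozyme variants on them in situ, and a hybridised Cy3 probe tracked these at 37 °C. After glucosamine-6-phosphate (40 μM to 10 mM) in HEPES/KCl/Mg(OAc)2 buffer was flowed in, tiles were imaged over ~14 h. Signals normalised to baseline and to non-cleaving reference variants were reduced to per-tile medians and fit to one- or two-exponential decays to obtain kobs. kcat and KM were derived through weighted Michaelis–Menten fits across concentrations.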

glucosamine-6-phosphate [2] = variants of: B1; test: self-cleavage kobs at 640 uM GlcN6P; higher = faster cleavage; RNA array
How it was run: as §1

glucosamine-6-phosphate [3] = variants of: B1; test: self-cleavage kobs at 2500 uM GlcN6P; higher = faster cleavage; RNA array
How it was run: as §1

glucosamine-6-phosphate [4] = variants of: B1; test: self-cleavage kobs at 10000 uM GlcN6P; higher = faster cleavage; RNA array
How it was run: as §1

glucosamine-6-phosphate [5] = variants of: B1; test: KM; higher = weaker cofactor use; RNA array
How it was run: as §1

glucosamine-6-phosphate [6] = variants of: B1; test: self-cleavage kobs at 40 uM GlcN6P; higher = faster cleavage; RNA array
How it was run: as §1

glucosamine-6-phosphate [7] = variants of: B1; test: self-cleavage kobs at 160 uM GlcN6P; higher = faster cleavage; RNA array
How it was run: as §1

| Variant | kcat (glucosamine-6-phosphate [1]) [s⁻¹] | self-cleavage kobs at 640 uM GlcN6P (glucosamine-6-phosphate [2]) [s⁻¹] | self-cleavage kobs at 2500 uM GlcN6P (glucosamine-6-phosphate [3]) [s⁻¹] | self-cleavage kobs at 10000 uM GlcN6P (glucosamine-6-phosphate [4]) [s⁻¹] | KM (glucosamine-6-phosphate [5]) [µM] | self-cleavage kobs at 40 uM GlcN6P (glucosamine-6-phosphate [6]) [s⁻¹] | self-cleavage kobs at 160 uM GlcN6P (glucosamine-6-phosphate [7]) [s⁻¹] |
| --- | --- | --- | --- | --- | --- | --- | --- |
| A33C A53U | 0.000206 ± 3.2e-05 | 7.53e-05 ± 1.6e-05 | 0.000246 ± 5.8e-05 | 0.000182 ± 1.9e-05 |  |  |  |
| G44U A53U | 0.000149 ± 2.2e-05 |  | 0.00015 ± 6e-05 | 0.000129 ± 1e-05 |  |  |  |
| A48G C71G | 1.72e-05 ± 7.5e-06 |  |  |  |  |  |  |
| G32U G66U | 9.79e-05 ± 9.9e-06 |  |  | 5.66e-05 ± 1.4e-05 | 7290 ± 1700 |  |  |
| G32U G66A | 0.000468 ± 5.1e-05 | 8.47e-05 ± 1e-05 | 0.00021 ± 2.9e-05 | 0.000358 ± 4.3e-05 | 3020 ± 560 |  |  |
| C11U A14C C70U | 0.000322 ± 0.00016 | 0.000221 ± 4.6e-05 | 0.000599 ± 0.00016 | 0.000224 ± 6.8e-05 |  |  |  |
| C61U C71U | 2.55e-05 ± 4.8e-07 | < 1e-05 |  |  | 2880 ± 200 | < 1e-05 | < 1e-05 |
| C11U G41A | 8.97e-05 ± 1e-05 | 3.01e-05 ± 1.2e-05 | 8.81e-05 ± 1.8e-05 | 7.91e-05 ± 8.6e-06 |  |  |  |
| C10U C71U | 3.48e-05 ± 5.8e-06 |  | 1.75e-05 ± 5.3e-06 | 3.05e-05 ± 5.4e-06 |  | < 1e-05 |  |
| U54A U65G C67U | 0.00302 ± 0.00027 | 0.000434 ± 9.2e-05 |  | 0.00217 ± 0.00041 | 3900 ± 500 |  | 0.000109 ± 3.7e-05 |
| U47G U57A | 0.000141 ± 1.3e-05 | 4.42e-05 ± 1.5e-05 | 7.57e-05 ± 2.1e-05 | 0.000125 ± 2.4e-05 | 1670 ± 420 |  |  |
| A15U A42U | 4.62e-05 ± 4.1e-06 |  |  | 3.96e-05 ± 1e-05 | 1830 ± 680 |  |  |
| G9A A12U | 5.42e-05 ± 3.1e-06 |  |  | 2.41e-05 ± 1e-05 |  |  | < 1e-05 |
| C58G A64G | 0.000129 ± 2.7e-05 | 6.72e-05 ± 2.7e-05 | 6.74e-05 ± 1.2e-05 | 0.000115 ± 1.7e-05 |  |  |  |
| U30G C71A | 0.00126 ± 0.0004 | 0.000344 ± 6.7e-05 | 0.00096 ± 0.00014 | 0.00119 ± 0.00018 | 1140 ± 560 | 7.85e-05 ± 1.2e-05 | 0.000138 ± 2.2e-05 |
| C50G A64U | 5.29e-05 ± 1.7e-05 | 9.1e-05 ± 2.3e-05 | 5.11e-05 ± 1.7e-05 |  |  |  | 6.24e-05 ± 1.5e-05 |
| U54A U69G | 6.78e-05 ± 1.1e-05 | 9.07e-05 ± 1.8e-05 | 9.01e-05 ± 1.6e-05 | 5.62e-05 ± 8.3e-06 |  |  | 6.31e-05 ± 2.8e-05 |
| U31A C68G | 3.4e-05 ± 9.3e-07 |  | 2.78e-05 ± 1.1e-05 | 3.32e-05 ± 8.1e-06 | 408 ± 78 |  |  |

| Variant | kcat (glucosamine-6-phosphate [1]) [s⁻¹] | self-cleavage kobs at 640 uM GlcN6P (glucosamine-6-phosphate [2]) [s⁻¹] | self-cleavage kobs at 2500 uM GlcN6P (glucosamine-6-phosphate [3]) [s⁻¹] | self-cleavage kobs at 10000 uM GlcN6P (glucosamine-6-phosphate [4]) [s⁻¹] | KM (glucosamine-6-phosphate [5]) [µM] | self-cleavage kobs at 40 uM GlcN6P (glucosamine-6-phosphate [6]) [s⁻¹] | self-cleavage kobs at 160 uM GlcN6P (glucosamine-6-phosphate [7]) [s⁻¹] |
| --- | --- | --- | --- | --- | --- | --- | --- |
| A15C U45C A53G U69C | 0.000427 ± 8e-05 | 5.45e-05 ± 2e-05 | 0.000198 ± 4.6e-05 | 0.000288 ± 8.5e-05 | 3740 ± 1200 | < 1e-05 |  |
| U55C A64U | 5.99e-05 ± 7.9e-06 |  | 4.69e-05 ± 8e-06 | 5.2e-05 ± 5.7e-06 |  |  |  |
| U31C U45G | 0.000845 ± 0.00014 | 0.000189 ± 2.7e-05 | 0.000505 ± 6.4e-05 | 0.000713 ± 9.2e-05 | 1870 ± 570 |  | 9.65e-05 ± 1.9e-05 |
| U45A C68U | 0.0022 ± 0.00039 | 0.000729 ± 0.00013 | 0.00176 ± 0.00032 | 0.00194 ± 0.00027 | 1080 ± 320 | 7.41e-05 ± 1.2e-05 | 0.000537 ± 0.00012 |
| G43A A53C | 6.63e-05 ± 3.6e-06 | < 1e-05 |  |  |  |  | < 1e-05 |
| U30A U47C C70G | 4.3e-05 ± 6.7e-06 |  | 3.41e-05 ± 1.5e-05 | 3.72e-05 ± 1.7e-05 |  |  |  |
| G40U U65A | 0.000363 ± 4.2e-05 | 0.000191 ± 3.7e-05 | 0.000235 ± 6.9e-05 | 0.000352 ± 7e-05 | 735 ± 170 |  | 6.26e-05 ± 1.5e-05 |
| C11G C67G | 3.76e-05 ± 1.2e-05 | 5.1e-05 ± 1.3e-05 |  |  |  |  |  |
| A12G U49G | 0.00103 ± 0.00035 |  |  | 6.93e-05 ± 1.7e-05 |  |  |  |
| G51A C70A | 2.99e-05 ± 7.1e-06 |  | 3.24e-05 ± 1.5e-05 |  |  |  |  |
| G51A C70G | 3.48e-05 ± 7.3e-06 |  |  |  |  |  |  |
| C10G U54A | < 1e-05 |  |  |  |  | < 1e-05 |  |
| G35C C70G | < 1e-05 |  | < 1e-05 |  |  |  |  |
| C16U U45C | 0.00254 ± 0.00049 | 0.000496 ± 0.0001 | 0.00224 ± 0.0007 | 0.00203 ± 0.0003 | 2290 ± 700 | 4.44e-05 ± 1.1e-05 | 0.000307 ± 0.00014 |
| U69G C71U | 4.96e-05 ± 1.4e-05 | 9.65e-05 ± 2.5e-05 | 6.25e-05 ± 1.2e-05 | 3.11e-05 ± 9.4e-06 |  |  | 7.88e-05 ± 2.1e-05 |
| G40C U47A | 0.00182 ± 0.0003 | 0.000511 ± 0.0001 | 0.00128 ± 0.00024 | 0.0017 ± 0.00019 | 1170 ± 310 | 7.98e-05 ± 1.1e-05 | 0.000192 ± 3.4e-05 |
| G29U C70A | 6.65e-05 ± 8.1e-06 | 4.74e-05 ± 7.5e-06 | 6.79e-05 ± 7.2e-06 | 5.54e-05 ± 7.6e-06 |  |  |  |
| C16A U31G C70U | 0.00025 ± 1.3e-05 | 0.000157 ± 3e-05 | 0.000242 ± 6.1e-05 | 0.000235 ± 4.9e-05 | 351 ± 54 |  | 7.99e-05 ± 2.2e-05 |
